Test results reported in patent publication US20030105278A1 (MERK, published 2003).
Bridges are numbered along the chain shown (N, C = ends). Where no end group is shown, it is not given here.

B1: MCH analog SEQ. ID. NO. 50 (position 10: Pro) (peptide)
peptide: RCMLPRVYRPC
modifications: N-terminal acetyl, C-terminal amide, Cys-Cys disulfide as in SEQ. ID. NO. 7
notes: ID; NO; 7 peptide; MCH position numbering
B2: MCH analog SEQ. ID. NO. 51 (position 10: Asn) (peptide)
peptide: RCMLNRVYRPC
modifications: N-terminal acetyl, C-terminal amide, Cys-Cys disulfide as in SEQ. ID. NO. 7
notes: as for B1
B3: MCH analog SEQ. ID. NO. 52 (position 10: Ser) (peptide)
peptide: RCMLSRVYRPC
modifications: N-terminal acetyl, C-terminal amide, Cys-Cys disulfide as in SEQ. ID. NO. 7
notes: as for B1
B4: MCH analog SEQ. ID. NO. 53 (position 10: Lys) (peptide)
peptide: RCMLKRVYRPC
modifications: N-terminal acetyl, C-terminal amide, Cys-Cys disulfide as in SEQ. ID. NO. 7
notes: as for B1
B5: MCH analog SEQ. ID. NO. 54 (position 10: Glu) (peptide)
peptide: RCMLERVYRPC
modifications: N-terminal acetyl, C-terminal amide, Cys-Cys disulfide as in SEQ. ID. NO. 7
notes: as for B1
B6: MCH analog SEQ. ID. NO. 57 (position 10: D-Pro) (peptide)
peptide: RCMLXRVYRPC
modifications: D-Pro at position 10; N-terminal acetyl, C-terminal amide, Cys-Cys disulfide as in SEQ. ID. NO. 7
notes: as for B1
B7: MCH analog SEQ. ID. NO. 28 (N-Me-Arg^11) (peptide)
peptide: RCMLGXVYRPC
modifications: N-methyl-arginine at position 11; N-terminal acetyl, C-terminal amide, Cys-Cys disulfide as in SEQ. ID. NO. 7
B8: MCH analog SEQ. ID. NO. 29 (N-Me-Arg^14) (peptide)
peptide: RCMLGRVYXPC
modifications: N-methyl-arginine at position 14; N-terminal acetyl, C-terminal amide, Cys-Cys disulfide as in SEQ. ID. NO. 7
B9: MCH analog SEQ. ID. NO. 30 (Sar^15) (peptide)
peptide: RCMLGRVYRXC
modifications: sarcosine at position 15; N-terminal acetyl, C-terminal amide, Cys-Cys disulfide as in SEQ. ID. NO. 7
B10: MCH analog SEQ. ID. NO. 55 (position 10: D-Leu) (peptide)
peptide: RCMLXRVYRPC
modifications: D-Leu at position 10; N-terminal acetyl, C-terminal amide, Cys-Cys disulfide as in SEQ. ID. NO. 7
B11: MCH analog SEQ. ID. NO. 56 (position 10: D-Nle) (peptide)
peptide: RCMLXRVYRPC
modifications: D-Nle at position 10; N-terminal acetyl, C-terminal amide, Cys-Cys disulfide as in SEQ. ID. NO. 7
B12: MCH analog SEQ. ID. NO. 59 (position 10: D-Lys) (peptide)
peptide: RCMLXRVYRPC
modifications: D-Lys at position 10; N-terminal acetyl, C-terminal amide, Cys-Cys disulfide as in SEQ. ID. NO. 7
B13: MCH analog SEQ. ID. NO. 60 (position 10: β-Ala) (peptide)
peptide: RCMLXRVYRPC
modifications: β-Ala at position 10; N-terminal acetyl, C-terminal amide, Cys-Cys disulfide as in SEQ. ID. NO. 7
B14: MCH analog SEQ. ID. NO. 61 (position 10: γ-Abu) (peptide)
peptide: RCMLXRVYRPC
modifications: γ-Abu (gamma-aminobutyric acid) at position 10; N-terminal acetyl, C-terminal amide, Cys-Cys disulfide as in SEQ. ID. NO. 7
B15: MCH analog SEQ. ID. NO. 49 (position 10: Nle) (peptide)
peptide: RCMLXRVYRPC
modifications: norleucine at position 10; N-terminal acetyl, C-terminal amide, Cys-Cys disulfide as in SEQ. ID. NO. 7
B16: MCH analog SEQ. ID. NO. 32 (position 6: Ac-Nle) (peptide)
peptide: XCMLGRVYRPC
modifications: Ac-Nle (acetyl-norleucine) at position 6; C-terminal amide, Cys-Cys disulfide as in SEQ. ID. NO. 7
B17: MCH analog SEQ. ID. NO. 43 (position 6: Ac-D-Pro) (peptide)
peptide: XCMLGRVYRPC
modifications: Ac-D-Pro at position 6; C-terminal amide, Cys-Cys disulfide as in SEQ. ID. NO. 7
B18: MCH analog SEQ. ID. NO. 44 (position 6: Ac-D-Asn) (peptide)
peptide: XCMLGRVYRPC
modifications: Ac-D-Asn at position 6; C-terminal amide, Cys-Cys disulfide as in SEQ. ID. NO. 7
B19: MCH analog SEQ. ID. NO. 46 (position 6: Ac-D-Glu) (peptide)
peptide: XCMLGRVYRPC
modifications: Ac-D-Glu at position 6; C-terminal amide, Cys-Cys disulfide as in SEQ. ID. NO. 7

Target: T1, human MCH receptor (membranes from a stable CHO or HEK-293 cell line) (human, UniProt Q99705 1-353)
T1 construct: whole, on cells; also called cloned human MCH receptor (CHO clone)
Assay: competition vs [125I]-human MCH (Phe13,Tyr19); human MCH receptor cell membranes (Example 3)

T1 sequence (Q99705 whole entry): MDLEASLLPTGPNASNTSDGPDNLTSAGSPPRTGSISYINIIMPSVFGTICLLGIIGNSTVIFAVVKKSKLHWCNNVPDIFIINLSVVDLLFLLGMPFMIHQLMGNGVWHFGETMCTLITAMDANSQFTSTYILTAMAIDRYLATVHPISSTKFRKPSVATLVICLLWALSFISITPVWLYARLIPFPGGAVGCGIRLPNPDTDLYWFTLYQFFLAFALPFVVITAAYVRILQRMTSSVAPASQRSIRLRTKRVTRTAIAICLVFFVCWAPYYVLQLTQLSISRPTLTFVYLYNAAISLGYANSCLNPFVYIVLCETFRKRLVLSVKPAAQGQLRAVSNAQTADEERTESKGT

In order of rising IC50:
1. B2  0.23 nM
2. B3  0.32 nM
3. B6  1.2 nM
4. B4  110 nM
5. B5  190 nM
6. B1  700 nM

Target: T1, human MCH receptor (membranes from a …)
Assay: SPA competition vs [125I]-human MCH (Phe13,Tyr19); human MCH receptor cell membranes

In order of falling IC50:
1. Ac-CMLGRVYRPCWQV (disulfide 1-10 (inferred)) [MCH analog SEQ. ID. NO. 12: Ac-Cys-Met-Leu-Gly-Arg-Val-Tyr-Arg-Pro-Cys-Trp-Gln-Val]  6.4 nM
2. DFAMLRCMLGRVFRPCWQY (disulfide 7-16 (inferred))  0.5 nM

Target: T2, human MCH receptor expressed from the open reading frame cDNA SEQ. ID. NO. 1 in 293-AEQ17 cells (human, UniProt Q99705 1-353)
Assay: cell-based or functional assay

T2 sequence (Q99705 whole entry): as above

In order of falling Activation %:
1. B9  113%
2. B7  110%

First: B8
Second: B9
The “EC50” value of the first is higher: > 1000 nM for the first, 25 nM for the second.

Target: T2, human MCH receptor expressed from the …
Assay: cell-based or functional assay
Remark: another data set of the same source

In order of rising “% Activation at 10 µM” value:
1. Ac-CMLGRVYRPCWQV (disulfide 1-10 (inferred)) [MCH analog SEQ. ID. NO. 12: Ac-Cys-Met-Leu-Gly-Arg-Val-Tyr-Arg-Pro-Cys-Trp-Gln-Val]  3%
2. DFAMLRCMLGRVFRPCWQY (disulfide 7-16 (inferred))  62.2%
3. DFDXLRCXLGRVYRPCWQV (norleucine (Nle) at positions 4 and 8; cyclization (S-S) between the two Cys)  65.9%

For Ac-CMLGRVYRPCWQV (disulfide 1-10 (inferred)) [MCH analog SEQ. ID. NO. 12: Ac-Cys-Met-Leu-Gly-Arg-Val-Tyr-Arg-Pro-Cys-Trp-Gln-Val], the “EC50” value was 492 nM.

Target: T2, human MCH receptor expressed from the …
Assay: cell-based or functional assay
Remark: another data set of the same source

In order of falling Activation %:
1. B2  106%
2. B15  106%
3. B3  104%
4. B14  101%
5. B6  90%
6. B11  33%
7. B4  25%
8. B10  23%
9. B5  12%
10. B1  4%
11. B13  3.2%

First: B1
Second: B2
The “EC50” value of the first is 23-fold higher: 519 nM for the first, 23 nM for the second.

Compared with B3, B4 is 69-fold higher in “EC50” value: 65 nM for the first, 4500 nM for the second.

Going from B5 to B6, the “EC50” value falls from > 10000 nM to 190 nM.

B12 and B13 cannot be ordered by “EC50” value: > 10000 nM for the first, > 1000 nM for the second.

Target: T2, human MCH receptor expressed from the …
Assay: cell-based or functional assay
Remark: another data set of the same source

In order of rising Activation %:
1. B19  85%
2. B18  94%
3. B17  96%
4. B16  107%
